Data as given in publication PMC3308208, “Disassembly and reassembly of human papillomavirus virus-like particles produces more virion-like antibody reactivity” (Virology Journal, 2012).

Molecular target: the molecule itself
Assay: cryo-EM imaging; post-D/R HPV16 VLPs, undiluted, in vitrified ice on holey carbon films; Tecnai F20 at 120 keV

B1: HPV16 L1 virus-like particles (VLPs) (natural protein)
chain: MSLWLPSEATVYLPPVPVSKVVSTDEYVARTNIYYHAGTSRLLAVGHPYFPIKKPNNNKILVPKVSGLQYRVFRIHLPDPNKFGFPDTSFYNPDTQRLVWACVGVEVGRGQPLGVGISGHPLLNKLDDTENASAYAANAGVDNRECISMDYKQTQLCLIGCKPPIGEHWGKGSPCTNVAVNPGDCPPLELINTVIQDGDMVDTGFGAMDFTTLQANKSEVPLDICTSICKYPDYIKMVSEPYGDSLFFYLRREQMFVRHLFNRAGAVGENVPDDLYIKGSGSTANLASSNYFPTPSGSMVTSDAQIFNKPYWLQRAQGHNNGICWGNQLFVTVVDTTRSTNMSLCAAISTSETTYKNTNFKEYLRHGEEYDLQFIFQLCKITLTADVMTYIHSMNSTILEDWNFGLQPPPGGTLEDTYRFVTSQAIACQKHTPPAPKEDPLKKYTFWEVNLKEKFSADLDQFPLGRKFLLQAGLKAKPKFTLGKRKATPTTSSTSTTAKRKKRKL
notes: major capsid protein L1 of human papillomavirus type 16, full length, self-assembled into VLPs; The same L1 protein was tested as pre-D/R VLPs (purified only) and as post-D/R VLPs (disassembled and reassembled); The T = 7 count of 360 copies is stated only in the background; also called HPV 16 L1 VLPs; post-D/R VLPs; source: over expressed in yeast, purified VLPs; post-D/R lots after disassembly …
  binding result: binds
